We go through two molecules from patent US12679878B2, “CRF2 receptor agonists and their use in therapy” (SANOFI, priority 2020, dated 2026).

Starred links: 1 amine or outer side, 2 acyl side, 3 side chain; linkers in the order of their positions; H or OH if unused. Non-standard residues stand in square brackets, D forms with d. Groups on a side chain read outwards from the residue. No end group written: not given here. *: point of attachment. C20 diacid = O=C(O)CCCCCCCCCCCCCCCCCCC(=O)*; C18 diacid = O=C(O)CCCCCCCCCCCCCCCCC(=O)*; γGlu = O=C(O)[C@H](CCC(=O)[*:2])N[*:1]; AEEA = NCCOCCOCC(=O)O; Aib = CC(C)(N)C(=O)O Some results are limits rather than exact numbers.

The target in the experiment is T1, anti-target CRF1R receptor (UniProt P34998 24-415, limits assumed).
T1 sequence (looked up): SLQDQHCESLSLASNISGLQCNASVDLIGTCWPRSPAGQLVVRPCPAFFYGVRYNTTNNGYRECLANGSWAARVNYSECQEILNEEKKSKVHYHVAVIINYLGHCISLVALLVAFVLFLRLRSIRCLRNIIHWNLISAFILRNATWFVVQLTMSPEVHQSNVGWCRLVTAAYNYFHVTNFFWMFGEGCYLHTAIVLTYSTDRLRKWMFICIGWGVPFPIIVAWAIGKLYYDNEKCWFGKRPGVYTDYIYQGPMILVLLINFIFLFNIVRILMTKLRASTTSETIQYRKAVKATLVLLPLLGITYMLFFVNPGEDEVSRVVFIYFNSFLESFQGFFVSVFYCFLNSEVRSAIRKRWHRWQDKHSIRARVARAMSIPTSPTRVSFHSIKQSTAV
Briefly: cell-based or functional assay.

B1: peptide of SEQ ID NO: 172 (peptide)
peptide: IVLSLD[dV]PIKLK([AEEA-AEEA-γGlu-γGlu-C20 diacid])QILLKQERQK[Aib]QREQAEKNKQILAQV-NH2
modifications: N-terminus assumed
SMILES: CC[C@H](C)[C@H](N)C(=O)N[C@H](C(=O)N[C@@H](CC(C)C)C(=O)N[C@@H](CO)C(=O)N[C@@H](CC(C)C)C(=O)N[C@@H](CC(=O)O)C(=O)N[C@@H](C(=O)N1CCC[C@H]1C(=O)N[C@H](C(=O)N[C@@H](CCCCN)C(=O)N[C@@H](CC(C)C)C(=O)N[C@@H](CCCCNC(=O)COCCOCCNC(=O)COCCOCCNC(=O)CC[C@H](NC(=O)CC[C@H](NC(=O)CCCCCCCCCCCCCCCCCCC(=O)O)C(=O)O)C(=O)O)C(=O)N[C@@H](CCC(N)=O)C(=O)N[C@H](C(=O)N[C@@H](CC(C)C)C(=O)N[C@@H](CC(C)C)C(=O)N[C@@H](CCCCN)C(=O)N[C@@H](CCC(N)=O)C(=O)N[C@@H](CCC(=O)O)C(=O)N[C@@H](CCCNC(=N)N)C(=O)N[C@@H](CCC(N)=O)C(=O)N[C@@H](CCCCN)C(=O)NC(C)(C)C(=O)N[C@@H](CCC(N)=O)C(=O)N[C@@H](CCCNC(=N)N)C(=O)N[C@@H](CCC(=O)O)C(=O)N[C@@H](CCC(N)=O)C(=O)N[C@@H](C)C(=O)N[C@@H](CCC(=O)O)C(=O)N[C@@H](CCCCN)C(=O)N[C@@H](CC(N)=O)C(=O)N[C@@H](CCCCN)C(=O)N[C@@H](CCC(N)=O)C(=O)N[C@H](C(=O)N[C@@H](CC(C)C)C(=O)N[C@@H](C)C(=O)N[C@@H](CCC(N)=O)C(=O)N[C@H](C(N)=O)C(C)C)[C@@H](C)CC)[C@@H](C)CC)[C@@H](C)CC)C(C)C)C(C)C
In the case of B1, the “EC50[nM] 0% HSA (cAMP, CRF1R-overexpression CHO cells)” value is over 1000 nM and the “Emax (%) (cAMP, CRF1R-overexpression CHO cells)” value turned out to be 25.6%.

B2: peptide of SEQ ID NO: 171 (peptide)
peptide: IVLSLD[dV]PIKLK([AEEA-AEEA-γGlu-γGlu-C18 diacid])QILLKQERQK[Aib]QREQAEKNKQILAQV-NH2
modifications: N-terminus assumed
SMILES: CC[C@H](C)[C@H](N)C(=O)N[C@H](C(=O)N[C@@H](CC(C)C)C(=O)N[C@@H](CO)C(=O)N[C@@H](CC(C)C)C(=O)N[C@@H](CC(=O)O)C(=O)N[C@@H](C(=O)N1CCC[C@H]1C(=O)N[C@H](C(=O)N[C@@H](CCCCN)C(=O)N[C@@H](CC(C)C)C(=O)N[C@@H](CCCCNC(=O)COCCOCCNC(=O)COCCOCCNC(=O)CC[C@H](NC(=O)CC[C@H](NC(=O)CCCCCCCCCCCCCCCCC(=O)O)C(=O)O)C(=O)O)C(=O)N[C@@H](CCC(N)=O)C(=O)N[C@H](C(=O)N[C@@H](CC(C)C)C(=O)N[C@@H](CC(C)C)C(=O)N[C@@H](CCCCN)C(=O)N[C@@H](CCC(N)=O)C(=O)N[C@@H](CCC(=O)O)C(=O)N[C@@H](CCCNC(=N)N)C(=O)N[C@@H](CCC(N)=O)C(=O)N[C@@H](CCCCN)C(=O)NC(C)(C)C(=O)N[C@@H](CCC(N)=O)C(=O)N[C@@H](CCCNC(=N)N)C(=O)N[C@@H](CCC(=O)O)C(=O)N[C@@H](CCC(N)=O)C(=O)N[C@@H](C)C(=O)N[C@@H](CCC(=O)O)C(=O)N[C@@H](CCCCN)C(=O)N[C@@H](CC(N)=O)C(=O)N[C@@H](CCCCN)C(=O)N[C@@H](CCC(N)=O)C(=O)N[C@H](C(=O)N[C@@H](CC(C)C)C(=O)N[C@@H](C)C(=O)N[C@@H](CCC(N)=O)C(=O)N[C@H](C(N)=O)C(C)C)[C@@H](C)CC)[C@@H](C)CC)[C@@H](C)CC)C(C)C)C(C)C
B2: the “EC50[nM] 0% HSA (cAMP, CRF1R-overexpression CHO cells)” value was over 1000 nM and the “Emax (%) (cAMP, CRF1R-overexpression CHO cells)” value is 7.54%.
